Laboratory results from IntAct's records for PubMed 19680263.

B1: Complement factor H (Homo sapiens), P08603 (parent)
chain: MRLLAKIICLMLWAICVAEDCNELPPRRNTEILTGSWSDQTYPEGTQAIYKCRPGYRSLGNVIMVCRKGEWVALNPLRKCQKRPCGHPGDTPFGTFTLTGGNVFEYGVKAVYTCNEGYQLLGEINYRECDTDGWTNDIPICEVVKCLPVTAPENGKIVSSAMEPDREYHFGQAVRFVCNSGYKIEGDEEMHCSDDGFWSKEKPKCVEISCKSPDVINGSPISQKIIYKENERFQYKCNMGYEYSERGDAVCTESGWRPLPSCEEKSCDNPYIPNGDYSPLRIKHRTGDEITYQCRNGFYPATRGNTAKCTSTGWIPAPRCTLKPCDYPDIKHGGLYHENMRRPYFPVAVGKYYSYYCDEHFETPSGSYWDHIHCTQDGWSPAVPCLRKCYFPYLENGYNQNYGRKFVQGKSIDVACHPGYALPKAQTTVTCMENGWSPTPRCIRVKTCSKSSIDIENGFISESQYTYALKEKAKYQCKLGYVTADGETSGSITCGKDGWSAQPTCIKSCDIPVFMNARTKNDFTWFKLNDTLDYECHDGYESNTGSTTGSIVCGYNGWSDLPICYERECELPKIDVHLVPDRKKDQYKVGEVLKFSCKPGFTIVGPNSVQCYHFGLSPDLPICKEQVQSCGPPPELLNGNVKEKTKEEYGHSEVVEYYCNPRFLMKGPNKIQCVDGEWTTLPVCIVEESTCGDIPELEHGWAQLSSPPYYYGDSVEFNCSESFTMIGHRSITCIHGVWTQLPQCVAIDKLKKCKSSNLIILEEHLKNKKEFDHNSNIRYRCRGKEGWIHTVCINGRWDPEVNCSMAQIQLCPPPPQIPNSHNMTTTLNYRDGEKVSVLCQENYLIQEGEEITCKDGRWQSIPLCVEKIPCSQPPQIEHGTINSSRSSQESYAHGTKLSYTCEGGFRISEENETTCYMGKWSSPPQCEGLPCKSPPEISHGVVAHMSDSYQYGEEVTYKCFEGFGIDGPAIAKCLGEKWSHPPSCIKTDCLSLPSFENAIPMGEKKDVYKAGEQVTYTCATYYKMDGASNVTCINSRWTGRPTCRDTSCVNPPTVQNAYIVSRQMSKYPSGERVRYQCRSPYEMFGDEEVMCLNGNWTEPPQCKDSTGKCGPPPPIDNGDITSFPLSVYAPASSVEYQCQNLYQLEGNKRITCRNGQWSEPPKCLHPCVISREIMENYNIALRWTAKQKLYSRTGESVEFVCKRGYRLSSRSHTLRTTCWDGKLEYPTCAKR
partner: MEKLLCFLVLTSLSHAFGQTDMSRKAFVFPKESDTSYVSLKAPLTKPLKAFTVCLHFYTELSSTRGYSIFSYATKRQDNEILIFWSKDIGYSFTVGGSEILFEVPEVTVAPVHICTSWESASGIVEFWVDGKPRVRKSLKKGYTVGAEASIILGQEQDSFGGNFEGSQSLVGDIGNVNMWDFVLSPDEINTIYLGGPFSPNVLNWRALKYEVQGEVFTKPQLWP

Variants of: B1
Details: with crp_human CRP

Row | Variant | effect of a mutation on the interaction
1 | V1197A | decreasing interaction strength
2 | R1215G | decreasing interaction strength
3 | W1183L | decreasing interaction strength
4 | R1210C | decreasing interaction strength

Variants of: B1
Details: with crp_human CRP
Remark: another data set of the same source

Row | Variant | effect of a mutation on the interaction
5 | R1203E;R1206E;R1210S;K1230S;R1231A | disrupting interaction strength

Variants of: B1
Details: with crp_human CRP
Remark: another data set of the same source

Row | Variant | effect of a mutation on the interaction
6 | R1203E;R1206E;R1210S;K1230S;R1231A | disrupting interaction strength
